Test results from the Immune Epitope Database (IEDB).
pIC50, pKd: −log10 of the molar value.

Experiments:
HLA-A*30:02 = assay: IEDB peptide-MHC binding, purified MHC/competitive/radioactivity; filed as Kd, often an IC50 or EC50 that approximates it; ≥ and ≤ were set here for values at or beyond the usual limits of such assays
HLA-B*44:02 [1] = assay: as above
HLA-B*08:01 [2] = assay: as above
HLA-B*07:02 [3] = assay: as above
HLA-B*15:01 [4] = assay: as above
HLA-B*44:03 = assay: as above
HLA-A*01:01 [5] = assay: IEDB peptide-MHC binding, purified MHC/direct/fluorescence; filed as Kd, often an IC50 or EC50 that approximates it; ≥ and ≤ were set here for values at or beyond the usual limits of such assays; details: source organism: Brucella suis
HLA-A*02:01 [6] = assay: as above; details: source organism: Brucella suis
HLA-A*03:01 = assay: as above; details: source organism: Brucella suis
HLA-A*11:01 = assay: as above; details: source organism: Brucella suis
HLA-A*26:01 = assay: as above
HLA-A*31:01 = assay: as above; details: source organism: Brucella suis
HLA-A*69:01 = assay: as above; details: source organism: Brucella suis
HLA-B*07:02 [7] = assay: as above; details: source organism: Brucella suis
HLA-B*08:01 [8] = assay: as above; details: source organism: Brucella suis
HLA-B*15:01 [9] = assay: as above; details: source organism: Brucella suis
HLA-B*27:05 = assay: as above; details: source organism: Brucella suis
HLA-B*40:01 = assay: as above; details: source organism: Brucella suis
HLA-B*44:02 [10] = assay: as above; details: source organism: Brucella suis
HLA-B*58:01 = assay: as above
HLA-A*24:02 [11] = assay: IEDB peptide-MHC binding, purified MHC/competitive/fluorescence; ≥ and ≤ were set here for values at or beyond the usual limits of such assays
HLA-A*23:01 = assay: IEDB peptide-MHC binding, purified MHC/competitive/radioactivity; filed as Kd, often an IC50 or EC50 that approximates it; ≥ and ≤ were set here for values at or beyond the usual limits of such assays; details: source organism: Mammarenavirus guanaritoense
HLA-A*24:02 [12] = assay: as above
HLA-A*29:02 = assay: as above; details: source organism: Mammarenavirus guanaritoense
HLA-B*39:01 = assay: IEDB peptide-MHC binding, purified MHC/competitive/fluorescence; filed as Kd, often an IC50 or EC50 that approximates it; ≥ and ≤ were set here for values at or beyond the usual limits of such assays; details: source organism: Bacillus anthracis str. A2012
HLA-A*02:01 [13] = assay: IEDB peptide-MHC binding, purified MHC/competitive/fluorescence; ≥ and ≤ were set here for values at or beyond the usual limits of such assays
HLA-B*18:01 = assay: IEDB peptide-MHC binding, purified MHC/direct/fluorescence; filed as Kd, often an IC50 or EC50 that approximates it; ≥ and ≤ were set here for values at or beyond the usual limits of such assays; details: source organism: West Nile virus
HLA-A*01:01 [14] = assay: IEDB peptide-MHC binding, purified MHC/competitive/radioactivity; filed as Kd, often an IC50 or EC50 that approximates it; ≥ and ≤ were set here for values at or beyond the usual limits of such assays; details: source organism: Dengue virus 4 Philippines/H241/1956
HLA-B*57:01 = assay: IEDB peptide-MHC binding, purified MHC/direct/fluorescence; filed as Kd, often an IC50 or EC50 that approximates it; ≥ and ≤ were set here for values at or beyond the usual limits of such assays; details: source organism: Bacillus cereus
[15] = source organism: Dengue virus 1 Brazil/97-11/1997
[16] = source organism: Dengue virus 3 Martinique/1243/1999
[17] = source organism: Dengue virus 4 Philippines/H241/1956
[18] = source organism: Vaccinia virus WR
[19] = source organism: Mammarenavirus guanaritoense
[20] = source organism: Zaire ebolavirus
[21] = source organism: Dengue virus 2 Jamaica/1409/1983
[22] = source organism: Dengue virus 4 Dominica/814669/1981

**Q.** AGGMLIACY was tested. Which pKd (HLA-A*30:02; [15]) did it give?
**A.** The pKd was 6.34.

**Q.** How did the pKd (HLA-B*44:02 [1]; [16]) turn out when AICSAVPVHW was run?
**A.** Its pKd is 5.62.

**Q.** With AIKRKLRTL as the sequence, how does the pKd (HLA-B*08:01 [2]; [15]) read?
**A.** The pKd was 7.76.

**Q.** With APHHKILAKA as the sequence, how does the pKd (HLA-B*07:02 [3]; [17]) read?
**A.** Its pKd is 6.39.

**Q.** AQKRTAAGIM was tested. Which pKd (HLA-B*15:01 [4]; [15]) did it give?
**A.** Its pKd is 7.59.

**Q.** How did the pKd (HLA-B*08:01 [2]; [18]) turn out when CPRKRKTVE was run?
**A.** Its pKd is 6.24.

**Q.** With DENPYKTWAY as the sequence, how does the pKd (HLA-B*44:03; [16]) read?
**A.** Its pKd is 8.06.

**Q.** With DVIGNDRQE as the sequence, how does the pKd (HLA-A*01:01 [5]) read?
**A.** Its pKd is no more than 4.70.

**Q.** What about the pKd (HLA-A*02:01 [6]) of the same sequence?
**A.** Its pKd is no more than 4.70.

**Q.** What about the pKd (HLA-A*03:01) of the same sequence?
**A.** Its pKd is no more than 4.70.

**Q.** What about the pKd (HLA-A*11:01) of the same sequence?
**A.** Its pKd is no more than 4.70.

**Q.** And the pKd (HLA-A*26:01; source organism: Brucella suis)?
**A.** The pKd was no more than 4.70.

**Q.** And the pKd (HLA-A*31:01)?
**A.** Its pKd is no more than 4.70.

**Q.** What about the pKd (HLA-A*69:01) of the same sequence?
**A.** The pKd was no more than 4.70.

**Q.** And the pKd (HLA-B*07:02 [7])?
**A.** The pKd was no more than 4.70.

**Q.** And the pKd (HLA-B*08:01 [8])?
**A.** The pKd was no more than 4.70.

**Q.** What about the pKd (HLA-B*15:01 [9]) of the same sequence?
**A.** Its pKd is no more than 4.70.

**Q.** And the pKd (HLA-B*27:05)?
**A.** Its pKd is no more than 4.70.

**Q.** And the pKd (HLA-B*40:01)?
**A.** Its pKd is no more than 4.70.

**Q.** And the pKd (HLA-B*44:02 [10])?
**A.** Its pKd is no more than 4.70.

**Q.** What about the pKd (HLA-B*58:01; source organism: Brucella suis) of the same sequence?
**A.** The pKd was no more than 4.70.

**Q.** With ELDLHFQRI as the sequence, how does the pKd (HLA-B*08:01 [2]; [18]) read?
**A.** The pKd was 5.49.

**Q.** ERPVILSLP was tested. Which pIC50 (HLA-A*24:02 [11]; source organism: Variola virus) did it give?
**A.** Its pIC50 is 4.73.

**Q.** What does the source list for FFQDIPIFF?
**A.** pKd (HLA-A*23:01): 7.99; pKd (HLA-A*24:02 [12]; [19]): 6.80; pKd (HLA-A*29:02): 10.10

**Q.** How did the pKd (HLA-A*26:01; source organism: Mycobacterium tuberculosis variant bovis) turn out when FGVDGEAGF was run?
**A.** Its pKd is no more than 4.70.

**Q.** With FHMSKPSDL as the sequence, how does the pKd (HLA-B*39:01) read?
**A.** The pKd was 8.11.

**Q.** Which results are given for FIYLLFASM?
**A.** pKd (HLA-B*08:01 [2]; [18]): 5.77; pKd (HLA-B*15:01 [4]; [18]): 6.00

**Q.** FLKHKYGSL was tested. Which pKd (HLA-B*08:01 [2]; [18]) did it give?
**A.** The pKd was 9.87.

**Q.** With FRFEVKKRD as the sequence, how does the pIC50 (HLA-A*02:01 [13]; [20]) read?
**A.** The pIC50 was no more than 3.13.

**Q.** And the pIC50 (HLA-A*24:02 [11]; [20])?
**A.** The pIC50 was 4.71.

**Q.** How did the pKd (HLA-B*08:01 [2]; [18]) turn out when FYRKKFRPL was run?
**A.** The pKd was 10.06.

**Q.** GCGRGGWSY was tested. Which pKd (HLA-A*30:02; [16]) did it give?
**A.** Its pKd is 6.36.

**Q.** With IEEVMRSRW as the sequence, how does the pKd (HLA-B*44:02 [1]; [15]) read?
**A.** The pKd was 6.75.

**Q.** And the pKd (HLA-B*44:03; [15])?
**A.** The pKd was 7.44.

**Q.** What does the source list for IESEKNETW?
**A.** pKd (HLA-B*44:02 [1]; [15]): 7.06; pKd (HLA-B*44:03; [15]): 6.55

**Q.** How did the pKd (HLA-B*08:01 [2]; [17]) turn out when IIGRRLQRL was run?
**A.** The pKd was 6.89.

**Q.** With IQNSGGTSIF as the sequence, how does the pKd (HLA-B*15:01 [4]; [16]) read?
**A.** Its pKd is 8.52.

**Q.** How did the pKd (HLA-B*15:01 [4]; [15]) turn out when IQTSGTTTIF was run?
**A.** The pKd was 8.28.

**Q.** How did the pIC50 (HLA-A*02:01 [13]; [18]) turn out when IRWLGGILP was run?
**A.** The pIC50 was no more than 3.81.

**Q.** And the pIC50 (HLA-A*24:02 [11]; [18])?
**A.** Its pIC50 is 4.32.

**Q.** KENGVDLSV was tested. Which pKd (HLA-B*18:01) did it give?
**A.** Its pKd is 5.28.

**Q.** KFLLIHQGM was tested. Which pIC50 (HLA-A*02:01 [13]; [20]) did it give?
**A.** The pIC50 was no more than 3.82.

**Q.** And the pIC50 (HLA-A*24:02 [11]; [20])?
**A.** Its pIC50 is 6.59.

**Q.** Which results are given for KPKGKVVDL?
**A.** pKd (HLA-B*07:02 [3]; [17]): 7.36; pKd (HLA-B*08:01 [2]; [17]): 6.91

**Q.** With KQFKQDSKY as the sequence, how does the pKd (HLA-B*15:01 [4]; source organism: Lymphocytic choriomeningitis virus (strain Armstrong) (clone 53b)) read?
**A.** Its pKd is 7.89.

**Q.** How did the pKd (HLA-A*23:01) turn out when KVINLSELL was run?
**A.** The pKd was 6.37.

**Q.** What about the pKd (HLA-A*24:02 [12]; [19]) of the same sequence?
**A.** Its pKd is 4.75.

**Q.** What about the pKd (HLA-A*29:02) of the same sequence?
**A.** Its pKd is 4.92.

**Q.** LAKRFSRGLL was tested. Which pKd (HLA-B*08:01 [2]; source organism: Dengue virus 3 Singapore/8120/1995) did it give?
**A.** Its pKd is 5.83.

**Q.** What does the source list for LALITVSGLY?
**A.** pKd (HLA-A*01:01 [14]): 4.90; pKd (HLA-A*30:02; [17]): 8.28

**Q.** With LARVGRERL as the sequence, how does the pKd (HLA-B*07:02 [3]; [21]) read?
**A.** The pKd was 6.53.

**Q.** How did the pKd (HLA-B*44:02 [1]; [22]) turn out when LENVMWKQI was run?
**A.** Its pKd is 6.98.

**Q.** What about the pKd (HLA-B*44:03; [22]) of the same sequence?
**A.** The pKd was 6.80.

**Q.** With LESGAVKYL as the sequence, how does the pIC50 (HLA-A*02:01 [13]; [20]) read?
**A.** The pIC50 was no more than 3.65.

**Q.** And the pIC50 (HLA-A*24:02 [11]; [20])?
**A.** Its pIC50 is no more than 3.89.

**Q.** With LFLRRRCPL as the sequence, how does the pKd (HLA-B*08:01 [2]; source organism: Vaccinia virus Copenhagen) read?
**A.** The pKd was 9.90.

**Q.** How did the pKd (HLA-A*24:02 [12]; [21]) turn out when LFMALVAFL was run?
**A.** Its pKd is 5.09.

**Q.** With LGKCGSCVY as the sequence, how does the pKd (HLA-B*15:01 [4]; [16]) read?
**A.** The pKd was 6.96.

**Q.** How did the pKd (HLA-B*57:01) turn out when LGTIYGFIW was run?
**A.** Its pKd is 6.28.

**Q.** What about the pKd (HLA-B*58:01; source organism: Bacillus cereus) of the same sequence?
**A.** The pKd was 8.20.

**Q.** LLKMPFRMV was tested. Which pKd (HLA-B*08:01 [2]; [18]) did it give?
**A.** The pKd was 8.15.

**Q.** LLSRYDEHF was tested. Which pKd (HLA-B*15:01 [4]; [18]) did it give?
**A.** The pKd was 7.27.

**Q.** How did the pKd (HLA-B*15:01 [4]; [18]) turn out when LMCPDECPG was run?
**A.** The pKd was 6.05.
